The nature of data set [1]: NONO immunostaining, paraspeckle count per nucleus. The note with it: glycan lost; control: NONO WT in NONO-KO HCT116.
The nature of data set [2]: NONO immunostaining, speckle count, HCT116. The note with it: glycan gained; control: 5.5 mM glucose, no OGT.

B1: NONO (Non-POU domain-containing octamer-binding protein): T440A (protein)
parent chain: MQSNKTFNLEKQNHTPRKHHQHHHQQQHHQQQQQQPPPPPIPANGQQASSQNEGLTIDLKNFRKPGEKTFTQRSRLFVGNLPPDITEEEMRKLFEKYGKAGEVFIHKDKGFGFIRLETRTLAEIAKVELDNMPLRGKQLRVRFACHSASLTVRNLPQYVSNELLEEAFSVFGQVERAVVIVDDRGRPSGKGIVEFSGKPAARKALDRCSEGSFLLTTFPRPVTVEPMDQLDDEEGLPEKLVIKNQQFHKEREQPPRFAQPGSFEYEYAMRWKALIEMEKQQQDQVDRNIKEAREKLEMEMEAARHEHQVMLMRQDLMRRQEELRRMEELHNQEVQKRKQLELRQEEERRRREEEMRRQQEEMMRRQQEGFKGTFPDAREQEIRMGQMAMGGAMGINNRGAMPPAPVPAGTPAPPGPATMMPDGTLGLTPPTTERFGQAATMEGIGAIGGTPPAFNRAAPGAEFAPNKRRRY
On to B1, for which the localisation_or_trafficking entry in data set [1] is on record as “decreases”.

B2: NONO (Non-POU domain-containing octamer-binding protein): myc-tagged OGT overexpression (protein)
parent chain: MQSNKTFNLEKQNHTPRKHHQHHHQQQHHQQQQQQPPPPPIPANGQQASSQNEGLTIDLKNFRKPGEKTFTQRSRLFVGNLPPDITEEEMRKLFEKYGKAGEVFIHKDKGFGFIRLETRTLAEIAKVELDNMPLRGKQLRVRFACHSASLTVRNLPQYVSNELLEEAFSVFGQVERAVVIVDDRGRPSGKGIVEFSGKPAARKALDRCSEGSFLLTTFPRPVTVEPMDQLDDEEGLPEKLVIKNQQFHKEREQPPRFAQPGSFEYEYAMRWKALIEMEKQQQDQVDRNIKEAREKLEMEMEAARHEHQVMLMRQDLMRRQEELRRMEELHNQEVQKRKQLELRQEEERRRREEEMRRQQEEMMRRQQEGFKGTFPDAREQEIRMGQMAMGGAMGINNRGAMPPAPVPAGTPAPPGPATMMPDGTLGLTPPTTERFGQAATMEGIGAIGGTPPAFNRAAPGAEFAPNKRRRY
On to B2, for which the localisation_or_trafficking entry in data set [2] is “increases”.

Values taken from article PMC12075841.
